Source: publication PMC2739136
Numbering of substitutions follows the chain as printed.

Columns and labels:
MBP-TraR R206Q, P33905 = molecular target: T1, MBP-TraR R206Q, P33905; assay: pull-down
T1 chain: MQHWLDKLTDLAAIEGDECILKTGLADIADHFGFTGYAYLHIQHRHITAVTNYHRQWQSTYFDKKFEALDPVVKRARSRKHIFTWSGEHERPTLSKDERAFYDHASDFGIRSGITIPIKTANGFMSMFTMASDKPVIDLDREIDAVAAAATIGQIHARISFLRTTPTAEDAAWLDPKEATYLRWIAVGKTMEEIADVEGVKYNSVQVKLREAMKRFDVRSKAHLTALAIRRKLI

MBP-TraR A222S, P33905 = molecular target: T2, MBP-TraR A222S, P33905; assay: pull-down
T2 chain: T1 chain with Q206R, A222S

B1: native TraR (wild type) (protein)
chain: T1 chain with Q206R
**Q.** Which heterodimer formation (% of wild type) (% of wild type) (MBP-TraR R206Q, P33905) does the source give for B1 here?
**A.** 71

**Q.** What about the heterodimer formation (% of wild type) (% of wild type) (MBP-TraR A222S, P33905) of the same protein?
**A.** 53
